Results reported in article PMC8808184 (2021).
One block for each binder: values may come before it.

How the values were obtained:
hCNTN5 = target: T1, hCNTN5 (Homo sapiens (Human), UniProt O94779); assay: BLI steady state, CNTN FN1-FN3 over biotinylated E1
T1 chain: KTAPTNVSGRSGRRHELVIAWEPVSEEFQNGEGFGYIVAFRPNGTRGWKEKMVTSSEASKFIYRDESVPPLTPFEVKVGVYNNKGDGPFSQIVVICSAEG

hCNTN3 = target: T2, hCNTN3 (Homo sapiens (Human), UniProt Q9P232); assay: as above
T2 chain: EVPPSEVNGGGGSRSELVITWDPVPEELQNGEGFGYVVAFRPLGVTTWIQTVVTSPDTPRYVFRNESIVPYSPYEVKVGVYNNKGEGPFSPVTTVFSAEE

Kd (hCNTN5): 10.9 µM | Kd (hCNTN3): 9.1 µM
B1: hAPLP1 (protein)
chain: GEFVSEALLVPEGCRFLHQERMDQCESSTRRHQEAQEACSSQGLILHGSGMLLPCGSDRFRGVEYVCCPP

Kd (hCNTN5): 38.6 µM
B2: hAPLP2 (protein)
chain: GEFVSDVLLVPEKCQFFHKERMEVCENHQHWHTVVKEACLTQGMTLYSYGMLLPCGVDQFHGTEYVCCPQ
